In one experiment the target is pooled human IgG (human). In words: cell-based or functional assay.
For experiment [1], the target named is pooled human IgG (human IgG1, 2, 3 and 4) (human). Kind of experiment: cell-based or functional assay.
Also: test concentration or dose not given here.

B1: PRT-218 (enzyme)
chain: MEVVEVWPYGQNPNGKTEILSQTEDSESLQRLRDIEDFQAEKKKQGVVYTKWLDGVNVDDHEFRKITDGNTEYYATPLLNGRGYYDINKDFNRDSDKCAAAVAANMFHYWLDRNRDNVDRFLRQNPDKHGIIELPDGQLKLSDFLNTYESDHDYRDKSKLFDFISNNFNGPVWTNKLLDNYINGYGYNYKYGRTIEDPTKNTSKINFFKEVFNGKLLTDNHSIRNKNEFSSKLSEALYTGKAIGLSYGPAGLRHSLGHIISVWGADLDEDGNVVAIYVTDSDDKKLTIGDERVGLKRYKVSYDDEGRARLTAYEETDNTGGEIRGLYTLDTGKQYWADYFDKTEQTGTDQAEQLEHHHHHH
For the molecule B1, in the experiment with pooled human IgG, the “Enzyme Activity Endpoint Assay (purified): Fab′2” value came to 0 ng/µL, the “Enzyme Activity Endpoint Assay (purified): Fc” value was found to be 39 ng/µL, the “Enzyme Activity Endpoint Assay (purified): IgG” value turned out to be 1780 ng/µL and the “Enzyme Activity Endpoint Assay (purified): scIgG” value was 0 ng/µL.

B2: PRT-220 (enzyme)
chain: MEVVEVWPYGQNPNGKTEILSQTEDSESLQRLRDIEDFQAEKKKQGVVYTKWLDGVNVDDHEFRKITDGNTEYYATPLLNGRGYYDINKDFNRDSDKCAAAVAANMFHYWLDRNRDNVDRFLRQNPDKHGIIELPDGQLKLSDFLNTYESDHDYRDKSKLFDFISNNFNGPVWTNKLLDNYINGYGYNYKYGRTIEDPTKNTSKINFFKEVFNGKLLTDNHSIRNKNEFSSKLSEALYTGKAIGLSYGPAGLRHSLGHIISVWGADLDEDGNVVAIYVTDSDDKKLTIGDERVGLKRYKVSYDDEGRARLTAYEETDNTGGEIRGLWTLDTGKQYWADYFDKTEQTGTDQAEQLEHHHHHH
Regarding B2, in the experiment with pooled human IgG, the “Enzyme Activity Endpoint Assay (purified): Fab′2” value turned out to be 0 ng/µL, the “Enzyme Activity Endpoint Assay (purified): Fc” value was found to be 61 ng/µL, the “Enzyme Activity Endpoint Assay (purified): IgG” value amounted to 2320 ng/µL and the “Enzyme Activity Endpoint Assay (purified): scIgG” value is 0 ng/µL.

B3: PRT-376 (enzyme)
chain: MVTSVWTKGVTPPTNFTYGEDVLHAPYVANQGWYDITKLFNGKDDLLCGAATAGNMLHWWFDQNKEQIENYLKKHPEKQKINFNGEQMFDVKEAIDTKDSQLDSKLFEYFKEKAFPYLSTKHLGVFPDHVIDMFINGYRLSLTNHGPTPVKRGSKDPRGGIFDAVFTRGDQSKLLTNRHDFKEKTLKEISDLIKQELTEGKALGISHTYANVRINHVINLWGADFDAEGNLEAIYVTDSDSNASIGMKKYFVGVNSNGKVAISAKEIEEDNIGAQVLGLFTLSTGQDIWNQTN
Turning to B3, in experiment [1], the “Enzyme Activity Endpoint Assay: Fab′2” value came to 496 ng/µL, the “Enzyme Activity Endpoint Assay: Fc” value came out at 325 ng/µL, the “Enzyme Activity Endpoint Assay: IgG” value is 0 ng/µL and the “Enzyme Activity Endpoint Assay: scIgG” value turned out to be 196 ng/µL.

B4: PRT-280 (enzyme)
chain: MVTSVWTKGVTPPAKFTQGEDVFHAPYVANQGWYDITKTFNGKDDLLCGAATAGNMLHWWFDQNKEKIEAYLKKHPDKQKIMFGDQELLDVRKVINTKGDQTNSELFNYFRDKAFPNLSARRIGVMPDLVLDMFINGYYLNVYKTQTTDVNRTYQEKDRRGGIFDAVFTRGDQSKLLTSRHDFKEKNLKEISDLIKKELTEGKALGLSHTYANVGINHVINLWGADFDSNGNLKAIYVTDSDSNASIGMKKYFVGVNSSGKVAISAKEIKEDNIGAQVLGLFTLSTGQDSWNQTN
Turning to B4, in experiment [1], the “Enzyme Activity Endpoint Assay: Fab′2” value came to 423 ng/µL, the “Enzyme Activity Endpoint Assay: Fc” value was 305 ng/µL, the “Enzyme Activity Endpoint Assay: IgG” value was determined as 319 ng/µL and the “Enzyme Activity Endpoint Assay: scIgG” value was determined as 0 ng/µL.

B5: PRT-288 (enzyme)
chain: MVTSVWTKGVTPPAKFTQGEDVFHAPYDANQGWYDITKEFNGKDDLLCGAATAGNMLHWWFDQNKEKIEAYLKKHPDKQKIMFGDQELLDVRKVINTKGDQTNSELFNYFRDKAFPNLSARRIGVMPDLVLDMFINGYYLNVYKTQTTDVNRTYQEKDRRGGIFDAVFTRGDQSKLLTSRHDFKEKNLKEISDLIKKELTEGKALGLSHTYANVRIGHVINLWGADFDSNGNLKAIYVTDSDSNASIGMKKYGVGVNSAGKVAISAKEIKEDNIGAQVLGLFTLSTGQDSWNQTN
Turning to B5, in experiment [1], the “Enzyme Activity Endpoint Assay: Fab′2” value is 439 ng/µL, the “Enzyme Activity Endpoint Assay: Fc” value stood at 334 ng/µL, the “Enzyme Activity Endpoint Assay: IgG” value was determined as 348 ng/µL and the “Enzyme Activity Endpoint Assay: scIgG” value was found to be 0 ng/µL.

B6: PRT-221 (enzyme)
chain: MEVVEVWPYGQNPNGKTEILSQTEDSESLQRLRDIEDFQAEKKMQNVVYTKWLDGVDVKDHDFRKIVDGNIAYYATPLLNGRGFYDINKDFNRDSDKCAAAVAANMFHYWLDINRDNVDRFLRQNPEKHGIIELPDGQLKLSDFLNTYESDHGYRDKSKLFDFISNNFNGPVWTDKLLDNYINGYAYNYKYGRTIEDPTKNTSKINFFKEVFNEKILTNNHSIRNQNEFSVLLSEALYTGKAIGLSYGPAGLRHSLGHIISVWGADLDADGNVVAIYVTDSDDKKLTIGDERVGLKRYKISTDDENRLRLTAYEETHNTGGQIRGLWTLDTGKQAWADYFDKTEQTGTDQAEQLEHHHHHH
Turning to B6, in the experiment with pooled human IgG, the “Enzyme Activity Endpoint Assay (purified): Fab′2” value stood at 117 ng/µL, the “Enzyme Activity Endpoint Assay (purified): Fc” value came out at 439 ng/µL, the “Enzyme Activity Endpoint Assay (purified): IgG” value was determined as 653 ng/µL and the “Enzyme Activity Endpoint Assay (purified): scIgG” value was 461 ng/µL.

B7: PRT-222 (enzyme)
chain: MEVVEVWPYGQNPNGKTEILSQTEDSESLQRLRDIEDFQAEKKMQNVVYTKWLDGVDVKDHDFRKIVDGNIAYYATPLLNGRGFYDINKDFNRDSDKCAAAVAANMFHYWLDINRDNVDRFLRQNPEKHGIIELPDGQLKLSDFLNTYESDHGYRDKSKLFDFISNNFNGPVWTDKLLDNYINGYAYNYKYGRTIEDPTKNTSKINFFKEVFNEKILTNNHSIRNQNEFSVLLSEALYTGKAIGLSYGPAGLRHSLGHIISVWGADLDADGNVVAIYVTDSDDKKLTIGDERVGLKRYKISTDDEGRLRLTAYEETHNTGGQIRGLWTLDTGKYAWADYFDKTEQTGTDQAEQLEHHHHHH
B7: in the experiment with pooled human IgG, the “Enzyme Activity Endpoint Assay (purified): Fab′2” value is 487 ng/µL, the “Enzyme Activity Endpoint Assay (purified): Fc” value was determined as 78 ng/µL, the “Enzyme Activity Endpoint Assay (purified): IgG” value is 1550 ng/µL and the “Enzyme Activity Endpoint Assay (purified): scIgG” value was 21 ng/µL.

B8: PRT-224 (enzyme)
chain: MEVVEVWPYGQNPNGKTEILSQTEDSESLQRLRDIEDFQAEKKKQNVVYTKWLDGVDVKDHDFRKIVDGNIAYYATPLLNGRGFYDINKDFNRDSDKCAAAVAANMFHYWLDINRDNVDRFLRQNPEKHGIIELPDGQLKLSDFLNTYESDHGYRDKSKLFDFISNNFNGPVWTDKLLDNYINGYAYNYKYGRTIEDPTKNTSKINFFKEVFNEKILTNNHSIRNQNEFSVLLSEALYTGKAIGLSYGPAGLRHSLGHIISVWGADLDADGNVVAIYVTDSDDKKLTIGDERVGLKRYKISTDDEGRLRLTAYEETHNTGGQIRGLWTLDTGKQAWADYFDKTEQTGTDQAEQLEHHHHHH
As for B8, in the experiment with pooled human IgG, the “Enzyme Activity Endpoint Assay (purified): Fab′2” value amounted to 217 ng/µL, the “Enzyme Activity Endpoint Assay (purified): Fc” value came out at 382 ng/µL, the “Enzyme Activity Endpoint Assay (purified): IgG” value came out at 344 ng/µL and the “Enzyme Activity Endpoint Assay (purified): scIgG” value worked out at 314 ng/µL.

B9: PRT-223 (enzyme)
chain: MEVVEVWPYGQNPNGKTEILSQTEDSESLQRLRDIEDFQAEKKKENVVYTKWLDGVDVKDHDFRKIVDGNIAYYATPLLNGRGFYDINKDFNRDSDKCAAAVAANMFHYWLDINRDNVDRFLRQNPEKHGIIELPDGQLKLSDFLNTYESDHGYRDKSKLFDFISNNFNGPVWTDKLLDNYINGYAYNYKYGRTIEDPTKNTSKINFFKEVFNEKILTNNHSIRNQNEFSDLLSEALYTGKAIGLSYGPAGLRHSLGHIISVWGADLDADGNVVAIYVTDSDDKKLTIGDERVGLKRYKISTDDENRLRLTAYEETHNTGGQIRGLWTLDTGKQAWADYFDKTEQTGTDQAEQLEHHHHHH
Take B9: in the experiment with pooled human IgG, the “Enzyme Activity Endpoint Assay (purified): Fab′2” value is 189 ng/µL, the “Enzyme Activity Endpoint Assay (purified): Fc” value amounted to 391 ng/µL, the “Enzyme Activity Endpoint Assay (purified): IgG” value is 375 ng/µL and the “Enzyme Activity Endpoint Assay (purified): scIgG” value worked out at 316 ng/µL.

B10: PRT-226 (enzyme)
chain: MEVVEVWPYGQNPNGKTEILSQTEDSESLQRLRDIEDFQAEKKKQNVVYTKWLDGVDVDDHDFRKIVDGNTEYYATPLLNGRGFYDINKDFNRDSDKCAAAVAANMFHYWLDRNRDNVDRFLRQNPEKHGIIELPDGQLKLSDFLNTYESDHGYRDKSKLFDFISNNFNGPVWTNKLLDNYINGYGYNYKYGRTIEDPTKNTSKINFFKEVFNEKILTNNHSIRNQNEFSVLLSEALYTGKAIGLSYGPAGLRHSLGHIISVWGADLDADGNVVAIYVTDSDDKKLTIGDERVGLKRYKISTDDEGRARLTAYEETDNTGGQIRGLWTLDTGKQAWADYFDKTEQTGTDQAEQLEHHHHHH
B10: in the experiment with pooled human IgG, the “Enzyme Activity Endpoint Assay (purified): Fab′2” value is 0 ng/µL, the “Enzyme Activity Endpoint Assay (purified): Fc” value amounted to 0 ng/µL, the “Enzyme Activity Endpoint Assay (purified): IgG” value is 1960 ng/µL and the “Enzyme Activity Endpoint Assay (purified): scIgG” value stood at 0 ng/µL.

B11: PRT-225 (enzyme)
chain: MEVVEVWPYGQNPNGKTEILSQTEDSESLQRLRDIEDFQAEKKKENVVYTKWLDGVDVKDHDFRKIVDGNIEYYATPLLNGRGFYDINKDFNRDSDKCAAAVAANMFHYWLDINRDNVDRFLRQNPEKHGIIELPDGQLKLSDFLNTYESDHGYRDKSKLFDFISNNFNGPVWTDKLLDNYINGYAYNYKYGRTIEDPTKNTSKINFFKEVFNEKILTNNHSIRNQNEFSVLLSEALYTGKAIGLSYGPAGLRHSLGHIISVWGADLDADGNVVAIYVTDSDDKKLTIGDERVGLKRYKISTDDENRARLTAYEETDNTGGQIRGLWTLDTGKQAWADYFDKTEQTGTDQAEQLEHHHHHH
In the case of B11, in the experiment with pooled human IgG, the “Enzyme Activity Endpoint Assay (purified): Fab′2” value is 0 ng/µL, the “Enzyme Activity Endpoint Assay (purified): Fc” value was determined as 63 ng/µL, the “Enzyme Activity Endpoint Assay (purified): IgG” value turned out to be 1500 ng/µL and the “Enzyme Activity Endpoint Assay (purified): scIgG” value stood at 0 ng/µL.

B12: PRT-219 (enzyme)
chain: MEVVEVWPYGQNPNGKTEILSQTEDSESLQRLRDIEDFQAEKKKQNVVYTKWLDGVTVDDSDFRKIKDGNTEYYATPLLNGRGFYDINKDFNRDSDKCAAAVAANMFHYWLDRNRDNVDRFLKQNPEKHGIIELPDGQLKLSDFLNTYESDNNYRDKSKLFDFISKNFNGPVWTNKLLDNYINGYGYNYKYGRTIEDPTKNTSKINFFKKVFNEKILTNVHQIFNYNEFSTLLSEALYTGKAIGLSYGPGGLRHSLGHIISVWGADLDADGNVVAIYVTDSDDKKLTIGDERVGLKRYKISTDDEGRARLTAYTETDNTGGQVRGIWTLDTGKQAWADYFDKTEQTGTDQAEQLEHHHHHH
On to B12, for which, in the experiment with pooled human IgG, the “Enzyme Activity Endpoint Assay (purified): Fab′2” value came to 104 ng/µL, the “Enzyme Activity Endpoint Assay (purified): Fc” value is 407 ng/µL, the “Enzyme Activity Endpoint Assay (purified): IgG” value came to 886 ng/µL and the “Enzyme Activity Endpoint Assay (purified): scIgG” value was 443 ng/µL.
